Test system: MS2 coat protein
Test: apparent KD of MS2 coat protein; higher = weaker reporter binding
Conditions: Eterna round: R107
In short: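 Normalised binding curves from single clusters were fitted, and the median fit for each design is given as apparent KD. The clusters held designed RNA switches transcribed on-chip from Illumina sequencing clusters. These were titrated with SNAP-549-labelled MS2 coat protein (twofold steps from 0.7 or 1.5 nM to 3 µM, 0.8–1.5 h to 10–20 min per step) in 100 mM Tris-HCl pH 7.5, 80 mM KCl, 4 mM MgCl2, without or with constant ligand.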

[1] = input ligand: theophylline 20 uM
[2] = input ligand: theophylline 2 mM
[3] = input ligand: tryptophan 2.4 mM

Sequence | apparent KD of MS2 coat protein (input ligand: arginine 13.2 mM) [nM] | apparent KD of MS2 coat protein (input ligand: none) [nM] | apparent KD of MS2 coat protein [1] [nM] | apparent KD of MS2 coat protein [2] [nM] | apparent KD of MS2 coat protein [3] [nM]
ACAUGAGGGCGAAGGAGCGCGAACAUGAGGAUCACCCAUGUCUAUAUCCGUCCGCAUGUAUCGCAGGUAGGUCGCGCUGUUACUU [#13 Exclusion - Arginine B] | 8.99 | 8.6 | 11.4 | 8.5 | 8.52
UCGCAUUGCUCAGAUACCAGACAUGAGGAUCACCCAUGUACCAAGGUAACCGAAAGGCAUGUCCCUUGGCAGCUGAGCAAUGCGU [MAT - Exclusion Theophlline B - Mod of Eli - D14] | 12.4 | – | 21.1 | – | 13.1
UCAUUUGAGUGAGAUGUAAGGUAUCAUGAUACCAGUAGAUAAUUAUACCCUUGGCAGCAUAACAUGAGGAUCACCCAUGUACAUG [Ac] | 20.1 | – | 27 | – | 19.6
AGUACACGAACGGAUACCAGCCGGACAUGAGGAUCACCCAUGUCCUACCUCUGUUCGGUUGGCCCUUGGCAGCCGUUCGUGUACA [Omei Theo B SS A v8] | 122 | – | 590 | – | 208
UGUAUGUGAUUUGAUACCAGAUCAGCUGGUUAUACAUGAGGAUCACCCAUGUUACUUUGGGUCCCUUGGCAGCAAAUCGCAUACU [SSTheo B #26] | 165 | – | 355 | – | 535
ACAUGAGGAUCACCCAUGUAUGAUGUUCCUCGAGGACCGGUACGGCCGCCACUCGAACGAGUGGCGCGCGAGCGCGCGCUCGCGC [aVa] | 14 | 15.6 | 27.2 | 17.3 | 15.2
AGCGACAUGCGUGAUACCAGCUACAUGAGGAUCACCCAUGUCAGUAGGAAACUACUGUGUAGCCCUUGGCAGCACAGUGCAUGUC [Exclusion - Theophylline B (Freestyle 26)] | 12.3 | 16.4 | 31.9 | 30.2 | 17.7
ACGUCUCGUUUACUCGUGGGUUAGCUCGAUACCAGUAUUCAAACUUACCCUUGGCAGCGACAUGAGGAUCACCCAUGUGCGAAGA [XTheo A #23] | 17.3 | – | 20.5 | – | 17.5
ACACAAUACAUGAGGAUCACCCAUGUAAAACGAGGACCGGUACGGCCGCCACUCGAAUACAGGAAACCUCGGAAUAUUAAGUGAA [JR_ExcTryptA_Sub001] | 26.9 | – | 64.1 | 95.8 | –
UAUAUAGAAGGAAGUCAUAUAGAUGCAGAAGGAGCGUAGGAAACUACAGGUAGGUCGCUGAGGUACAUGAGGAUCACCCAUGUAG [SSArg A #15 Slice of Pi] | 24.7 | 32.3 | 44.7 | 24.9 | 29.4
UAUAUAUACUCGGCCGCCACUGAGAGAGUCAUGUAAACAUGAGGAUCACCCAUGUAAUAUAUAUACAGGACCGGGAGUAUAUUAA [4.A] | 19.1 | – | 17.3 | 15.8 | –
UACUUGCUGACGGCCGCCACUAGAACAUGAGGAUCACCCAUGUACGGCGGCCGUCAUGGGUGGACUAGGACCGGGUCAGCAAGAU [(Trp1)-(Ms2)-(T)'-(M)'-(Trp2)_Design6] | 10.7 | 12 | 20.5 | 13.9 | 13.2
GACAUGAGGAUCACCCAUGUGUAACCAGAAGGAGCGUGCGAAAGCACAGGUAGGUCGCUGGUGGGUUUAGGUUUAGUAGGUGUUC [SSAA NP+V+V2 #3] | 87.6 | 69.2 | 100 | 139 | 56.4
UUCAGCUAGUCGGCCGCCACUACACGAGGAUCACCCGUGUUCCUAAAACACUGCUUCGGCAGUGGUAGGACCGGGACUAGCUGAG | 27.7 | 27.9 | 33 | 36.7 | 123
CCGACGAUGACUAUGGGUCAGGAGUGCGUACGAGGACCGGUACGGCCGCCACUCGAGGAGUGGGACAUGAGGAUCACCCAUGUGG [#19 Exclusion Tryptophan A] | 44.6 | 50.2 | 49.8 | 54.8 | 47.8
GUCACACAGUAGGAUACCAGCGUGGCUUAUCCCUGAUCGUACAUGAGGAUCACCCAUGUCCGCCCUUGGCAGCCUCCUGCUCGGA [theeternabot_exclusion_MS2_Theo_B_33] | 12.4 | – | 17.7 | – | 11.9
